Read-outs that look alike come from different tables or passages of the source.

Here are results for four molecules from publication PMC6684798, “Structural basis for the target specificity of actin histidine methyltransferase SETD3” (Nature Communications, 2019).

Assay [1] addresses T1, SETD3 (Homo sapiens, UniProt Q86TU7).
T1 construct: GST (cleaved yes); made in house; host or cells: Escherichia coli BL21(DE3) CodonPlus
T1 sequence (Q86TU7 1-594): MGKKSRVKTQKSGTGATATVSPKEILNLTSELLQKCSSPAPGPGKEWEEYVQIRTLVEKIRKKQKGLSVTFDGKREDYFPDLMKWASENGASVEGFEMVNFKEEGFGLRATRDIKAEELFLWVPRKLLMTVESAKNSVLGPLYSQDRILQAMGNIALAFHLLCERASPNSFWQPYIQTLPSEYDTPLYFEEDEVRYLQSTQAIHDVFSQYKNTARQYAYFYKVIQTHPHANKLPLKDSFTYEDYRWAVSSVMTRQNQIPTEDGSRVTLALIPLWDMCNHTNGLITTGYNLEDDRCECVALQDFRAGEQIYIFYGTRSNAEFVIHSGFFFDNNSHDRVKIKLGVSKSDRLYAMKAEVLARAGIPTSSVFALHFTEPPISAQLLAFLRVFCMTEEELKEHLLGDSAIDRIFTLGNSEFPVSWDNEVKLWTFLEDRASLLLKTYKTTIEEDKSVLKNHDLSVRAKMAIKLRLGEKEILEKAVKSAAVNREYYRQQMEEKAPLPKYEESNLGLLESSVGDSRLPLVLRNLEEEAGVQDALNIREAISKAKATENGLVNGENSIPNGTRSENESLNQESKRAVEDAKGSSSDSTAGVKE
The experiment in a line: Ki measurement of sinefungin against SAM for SETD3 (Supplementary Fig. 2a, b). Type of assay: biochemical. On the procedure: Recombinant human SETD3 (pXC2003) was expressed as a GST-fusion[22] in Escherichia coli BL21(DE3) CodonPlus^TM cells (Stratagene). The SETD3 mutants at residue 255 (N255A; pXC2093 and N255V; pXC2094) were generated with Q5 Site-Directed Mutagenesis Kit (New England Biolabs), confirmed by sequencing and the same protocol for expression and purification were followed. Briefly, the purification was conducted in a BIO-RAD NGC^TM system using a three-column chromatography of glutathione-sepharose, HiTrap Q-HP and Superdex 200. The GST tag was removed by PreScisson Protease (purified in-house). The purified SETD3 proteins at a concentration ~25–35 mg/ml were kept at −80 °C in storage buffer for future use [20 mM Tris (pH 8.0), 200 mM NaCl, 5% glycerol, and 0.5 mM tris (2-carboxyethyl) phosphine (TCEP)].
For Ki measurement of sinefungin (Supplementary Fig. 2a, b), a reaction mixture contained 20 mM Tris/HCl (pH 8.0), 50 mM NaCl, 0.1 mg/ml BSA, 1 mM DTT, 0.18 µM SETD3, 40 µM H73 (residues 66–80) peptide and first incubated with varied concentration of sinefungin (0–100 µM) for 30 min, reactions were then started by addition of 2–8 µM SAM. After 30 min at room temperature, the reactions were terminated by the addition of TFA to 0.1% (v/v). […]

Assay [2] concerns the target Recombinant human SETD3 (pXC2003), wild type (human) (UniProt Q86TU7).
For assay [3] the target is unchanged. This is another data set of the same source.

In the case of `Nc1ncnc2c1ncn2[C@@H]1O[C@H](C[C@@H](N)CC[C@H](N)C(=O)O)[C@@H](O)[C@H]1O` [sinefungin, adenosyl ornithine], the “mode of inhibition of SETD3” value in assay [1] (Lineweaver-Burk, H73(66–80) 40 µM, 0–100 µM sinefungin, 2–8 µM SAM, pH 8.0) is “SAM-competitive inhibitor”. In addition, in assay [1] (Supplementary Fig. 2), the “support of methyl transfer / inhibition” value is “does not support the methyl transfer, and thus functions as an inhibitor”.

For the molecule “actin H73 peptide (residues 66-80) (from UniProt P60709 66-80)”, in assay [2], the Km of steady-state methylation kinetics (MTase-Glo), pH 8.0, room temperature was 21 μM. On to “actin H73K peptide (residues 66-80) (from UniProt P60709 66-80)”, for which, in assay [2], the Km of steady-state methylation kinetics (MTase-Glo), pH 10.5, 37 °C came to 430 μM. For the molecule “actin H73K peptide (residues 66-88) (from UniProt P60709 66-88)”, the Km of steady-state methylation kinetics (MTase-Glo), pH 10.5, 37 °C in assay [3] came to 5.2 μM.
